These results are taken from patent US20260085105A1 (Amgen, published 2026).

The target of experiment [1] is T1, MAGE-A4 (100% identical in MAGEA8) peptide on HLA-A*02:01 (human).
T1 peptide: KVLEHVVRV
Briefly: cells that express the antigen: NCI-H1755; TCR-Ts of three donors; full-length, on cells.

Experiment [2] has as its target T2, SYNE3 peptide on HLA-A*02:01 (human).
T2 peptide: KLLDLQVRV
The experiment is described as follows: killing.

The target in experiment [3] is T3, NSD1 peptide on HLA-A*02:01 (human).
T3 peptide: KVQEQVHKV
Briefly: killing.

For experiment [4], the target named is T4, PTRF peptide on HLA-A*02:01 (human).
T4 peptide: KLLEKVRKV
Briefly: killing.

Experiment [5] addresses T5, HTR5A peptide on HLA-A*02:01 (human).
T5 peptide: KVLETLVTV
Briefly: killing.

Experiment [6] deals with T6, AXIN1 peptide on HLA-A*02:01 (human).
T6 peptide: ILDEHVQRV
The experiment is described as follows: killing.

In experiment [7] the target is T7, TP2 peptide on HLA-A*02:01 (human).
T7 peptide: KILEDVVGV
Briefly: killing.

For experiment [8], the target named is T8, HERC4 peptide on HLA-A*02:01 (human).
T8 peptide: KVLEILHRV
Briefly: killing.

In experiment [9] the target is T9, GPC5 peptide on HLA-A*02:01 (human).
T9 peptide: KLLEQVNRI
The experiment is described as follows: killing.

Experiment [10] has as its target T10, KIAA1033 peptide on HLA-A*02:01 (human).
T10 peptide: KVLNKVITV
Briefly: killing.

Experiment [11] concerns the target T11, PSME2 peptide on HLA-A*02:01 (human).
T11 peptide: KVLERVNAV
Briefly: killing.

Experiment [12] deals with T12, RG1L peptide on HLA-A*02:01 (human).
T12 peptide: FLLETVVRV
The experiment is described as follows: killing.

Experiment [13] addresses T13, ANO5 peptide on HLA-A*02:01 (human).
T13 peptide: IVMEHVVFL
The experiment is described as follows: killing.

The target in experiment [14] is T14, MIA3 peptide on HLA-A*02:01 (human).
T14 peptide: KVLDKVFRA
The experiment is described as follows: killing.

The target of experiment [15] is T15, ATAD2 peptide on HLA-A*02:01 (human).
T15 peptide: KILEALQRV
The experiment is described as follows: killing.

The target of experiment [16] is T16, MAGE-A4 (100% identical in MAGEA8) peptide on HLA-A*02:05 (human).
T16 peptide: KVLEHVVRV
The experiment is described as follows: killing.

The target of experiment [17] is T17, TSC1 peptide on HLA-A*02:01 (human).
T17 peptide: SLLGHVIRL
Briefly: killing.

Experiment [18] deals with T18, MAGE-A4 (100% identical in MAGEA8) peptide on HLA-A*02:07 (human).
T18 peptide: KVLEHVVRV
The experiment is described as follows: killing.

Experiment [19] addresses T19, GRP78 peptide on HLA-A*02:01 (human).
T19 peptide: KVTHAVVTV
The experiment is described as follows: killing.

Experiment [20] deals with T20, TRMT1L peptide on HLA-A*02:01 (human).
T20 peptide: VALEHFVLV
Briefly: killing.

Experiment [21] deals with T21, MADD peptide on HLA-A*02:01 (human).
T21 peptide: ILLEHKVVL
Briefly: killing.

Experiment [22] has as its target T22, HNRNPR peptide on HLA-A*02:01 (human).
T22 peptide: KVWGNVVTV
Briefly: killing.

In experiment [23] the target is T23, CNOT1 peptide on HLA-A*02:01 (human).
T23 peptide: KVLGIVVGV
Briefly: killing.

B1: TCR3 of Tables 1A and 1B (TCR2 of the examples) (TCR, V domains shown)
Valpha: GESVGLHLPTLSVQEGDNSIINCAYSNSASDYFIWYKQESGKGPQFIIDIRSNMDKRQGQRVTVLLNKTVKHLSLQIAATQPGDSAVYFCAEASPRQDTGRRALTFGSGTRLQVQP
Vbeta: DAGVTQSPTHLIKTRGQQVTLRCSPKSGHDTVSWYQQALGQGPQFIFQYYEEEERQRGNFPDRFSGHQFPNYSSELNVNALLLGDSALYLCASSLWTGSGELFFGEGSRLTVL
As for B1, the “E:T EC50” value in experiment [1] was 0.01 effector:target ratio. In addition, the binding result in [2], in experiment [3], in [4], in experiment [5], in experiment [6] and in experiment [7] was “no recognition” throughout. The binding result in experiment [8], in experiment [9], in experiment [10], in experiment [11], in [12] and in [13] was “no recognition” in each case. Moreover, the binding result in [14] is “no recognition”; in [15], “no recognition”; in [16], “recognises”; in experiment [17], “no recognition”; in [18], “recognises”; in experiment [19] it was “no recognition”. For the same molecule, the binding result in experiment [20], in [21], in experiment [22] and in [23] was “no recognition” throughout.
